In article PMC7515726:

Assays:
Assay in all cases: affinity purification with mass spectrometry
[1] = target: Nuc1, acidic patch mutant nucleosome (hH2A.Dx10), biotinylated 185 bp 601 DNA (human) (UniProt P62807)
[2] = target: Nuc2, disk patch 2 mutant nucleosome (hH2A.Dx2, hH2B.Cx8), biotinylated 185 bp 601 DNA (human) (UniProt Q71DI3)
[3] = target: Nuc3, disk patch 3 mutant nucleosome (hH3.2x10, hH4x24, hH2B.Cx9), biotinylated 185 bp 601 DNA (human) (UniProt P20671)

| fold decrease in binding vs wild-type nucleosome [1] | fold decrease in binding vs wild-type nucleosome [2] | fold decrease in binding vs wild-type nucleosome [3] | Binder |
| --- | --- | --- | --- |
| 1.35 fold | – | – | cohesin complex protein SMC1A (natural protein) MGFLKLIEIENFKSYKGRQIIGPFQRFTAIIGPNGSGKSNLMDAISFVLGEKTSNLRVKTLRDLIHGAPVGKPAANRAFVSMVYSEEGAEDRTFARVIVGGSSEYKINNKVVQLHEYSEELEKLGILIKARNFLVFQGAVESIAMKNPKERTALFEEISRSGELAQEYDKRKKEMVKAEEDTQFNYHRKKNIAAERKEAKQEKEEADRYQRLKDEVVRAQVQLQLFKLYHNEVEIEKLNKELASKNKEIEKDKKRMDKVEDELKEKKKELGKMMREQQQIEKEIKEKDSELNQKRPQYIKAKENTSHKIKKLEAAKKSLQNAQKHYKKRKGDMDELEKEMLSVEKARQEFEERMEEESQSQGRDLTLEENQVKKYHRLKEEASKRAATLAQELEKFNRDQKADQDRLDLEERKKVETEAKIKQKLREIEENQKRIEKLEEYITTSKQSLEEQKKLEGELTEEVEMAKRRIDEINKELNQVMEQLGDARIDRQESSRQQRKAEIMESIKRLYPGSVYGRLIDLCQPTQKKYQIAVTKVLGKNMDAIIVDSEKTGRDCIQYIKEQRGEPETFLPLDYLEVKPTDEKLRELKGAKLVIDVIRYEPPHIKKALQYACGNALVCDNVEDARRIAFGGHQRHKTVALDGTLFQKSGVISGGASDLKAKARRWDEKAVDKLKEKKERLTEELKEQMKAKRKEAELRQVQSQAHGLQMRLKYSQSDLEQTKTRHLALNLQEKSKLESELANFGPRINDIKRIIQSREREMKDLKEKMNQVEDEVFEEFCREIGVRNIREFEEEKVKRQNEIAKKRLEFENQKTRLGIQLDFEKNQLKEDQDKVHMWEQTVKKDENEIEKLKKEEQRHMKIIDETMAQLQDLKNQHLAKKSEVNDKNHEMEEIRKKLGGANKEMTHLQKEVTAIETKLEQKRSDRHNLLQACKMQDIKLPLSKGTMDDISQEEGSSQGEESVSGSQRTSSIYAREALIEIDYGDLCEDLKDAQAEEEIKQEMNTLQQKLNEQQSVLQRIAAPNMKAMEKLESVRDKFQETSDEFEAARKRAKKAKQAFEQIKKERFDRFNACFESVATNIDEIYKALSRNSSAQAFLGPENPEEPYLDGINYNCVAPGKRFRPMDNLSGGEKTVAALALLFAIHSYKPAPFFVLDEIDAALDNTNIGKVANYIKEQSTCNFQAIVISLKEEFYTKAESLIGVYPEQGDCVISKVLTFDLTKYPDANPNPNEQ |
| 1.94 fold | – | – | tyrosine-protein kinase BAZ1B (enzyme) MAPLLGRKPFPLVKPLPGEEPLFTIPHTQEAFRTREEYEARLERYSERIWTCKSTGSSQLTHKEAWEEEQEVAELLKEEFPNWYEKLVLEMVHHNTASLEKLVDSAWLEIMTKYAVGEECDFEVGKEKMLKVKIVKIHPLEKVDEEAVEKKSDGACDSPSSDKENSSQMAQDLQKKETVVKEDEGRRESINDRARRSPRKLPTSLKKGERKWAPPKFLPHKYDVKLQNEDKIISNVPADSLIRTERPPNKEILRYFIRHNALRAGTGENAPWVVEDELVKKYSLPSKFSDFLLDPYKYMTLNPSTKRRNTGSPDRKPSKKPKRDSSSLSSPLNPKLWCHVHLEKSLNGPPLKVKNSKNSKSPEEHLEGVMKIMSPNNNKLHSFHIPKKGPAAKKPGKHSDKPLKAKGRGKGILNGQKSTGNSKSPSKCVKTPKTKMKQMTLLDMAKGTQKMTRTPRSSGGVPRSSGKPHKHLPPAALHLIAYYKENKDKEDKKSALSCVISKTARLLSNEDRARLPEELRALVQKRYELLEHKKRWASMSEEQRKEYLKKKRQELKERLREKAKERREREMLERLEKQKRFEDQELGGRNLPAFRLVDTPEGLPNTLFGDVALVVEFLSCYSGLLLPDAQYPITAVSLMEALSADKGGFLYLNRVLVILLQTLLQDEIAEDYGELGMKLSEIPLTLHSVSELVRLCLRRCDVQEDSEGSETDDNKDSTPFEDNEVQDEFLEKLETSEFFELTSEEKLRILTALCHRILMTYSVQDHMETRQQVSAELWKERLAVLKEENDKKRAEKQKRKEMEARNKENGKEENVLGKVDRKKEIVKIEQQVEVEADDMISAVKSRRLLSMQAKRKREIQERETKVRLEREAEEERMRKHKAAAEKAFQEGIAKAKLVLRRTPIGTDRNHNRYWLFSNEVPGLFIEKGWVHNSIDYRFKHHRKDHSNLPDDDYCPRSKKANLGKNASVNAHHGPALEAVETTVPKQGQNLWFLCDSQKELDELLSCLHPQGIRESQLKERLEKRYQEITHSIYLARKPNLGLKSCDGNQELLNFLRSDLIEVATRLQKGGLGYMEGTSEFEARVISLEKLKDFGECVIALQASVIKKFLQGFMAPKQKKRKLQSEDSTKSEEVDEEKKMVEEAKVASALEKWKTAIREAQTFSRMHVLLGMLDACIKWDMSAENARCKVCRKKGEDDKLILCDECNKAFHLFCLRPALYEVPDGEWQCPACQPPTARRNSRGRNYTEESTSEGSEGDESGEEEEEEEEEEEEEEDYEVAGLRLRPRKTIRGKQSVIPAARPGRPPGKKSHPARRSRPKDDPEVDDLVLQTKRISRRQSLELQKCEDILHKLVKYRFSWPFREPVTRDEAEDYYDVIEHPMDFQTIQNKCSCGNYRSVQEFLTDMKQVFANAELYNCRGSHVLSCMEKTEQCLLALLQKHLPGHPYVRRKRRKFPDRLADDEGDSDSESVGQSRGRRQKK |
| 1.61 fold | – | – | VRK1 kinase (enzyme) MPRVKAAQAGRPGPAKRRLAEQFAAGEVLTDMSRKEWKLGLPIGQGGFGCIYLADTNSSKPVGSDAPCVVKVEPSDNGPLFTELKFYQRAAKPEQIQKWIRTHKLKYLGVPKYWGSGLHDKNGKSYRFMIMDRFGSDLQKIYEANAKRFSRKTVLQLSLRILDILEYIHEHEYVHGDIKASNLLLSHKNPDQVYLVDYGLAYRYCPDGVHKEYKEDPKRCHDGTLEFTSIDAHKGVAPSRRGDLEILGYCMIQWLSGCLPWEDNLKDPNYVRDSKIRYRDNVAALMEKCFPEKNKPGEIAKYMESVKLLEYTEKPLYQNLRDILLQGLKAIGSKDDGKLDFSAVENGSVKTRPASKKRKKEAEESAVCAVEDMECSDTQVQEAAQTRSVESQGAIHGSMSQPAAGCSSSDSSRRQQHLGLEQDMLRLDRRGSRTRKKAQK |

The next lines start with the binder.

| Binder | fold decrease in binding vs wild-type nucleosome [1] | fold decrease in binding vs wild-type nucleosome [2] | fold decrease in binding vs wild-type nucleosome [3] |
| --- | --- | --- | --- |
| RCC1 (regulator of chromatin condensation) (natural protein) MPPKRIAKRRSPPEDAIPKSKKVKVSHRSHNTEPGLVLTLGQGDVGQLGLGESVLERKKPALVPLLQDVVQAEAGGMHTVCLSQSGQVYSFGCNDEGALGRDTSVEGSEMVPGKVELQEKVVQVSAGDSHTAALTEDGRVFLWGSFRDNNGVIGLLEPMKKSMVPVQVQLDAPVVKVASGNDHLVMLTNDGDLYTLGCGEQGQLGRVPELFANRGGRQGLGRLLVPRCVLLKSRGTRGRVRFQDAFCGAYFTFAISREGHVYGFGLSNYHQLGTPGTGSCFIPQNLTSFKNSTKSWVGFSGGQHHTVCMDSEGKAYSLGRAEYGRLGLGEGAEEKSIPTLISRLPVVSSVACGASVGYAVSKDGRVFAWGMGTNYQLGTGQDEDAWSPVEMTGKQLENRVVLTVSSGGQHTVLLVKDQAQS | 22 fold | 3.1 fold | 2.1 fold |
| OGT O-GlcNAc transferase (enzyme) MASSVGNVADSTEPTKRMLSFQGLAELAHREYQAGDFEAAERHCMQLWRQEPDNTGVLLLLSSIHFQCRRLDRSAHFSTLAIKQNPLLAEAYSNLGNVYKERGQLQEAIEHYRHALRLKPDFIDGYINLAAALVAAGDMEGAVQAYVSALQYNPDLYCVRSDLGNLLKALGRLEEAKACYLKAIETQPNFAVAWSNLGCVFNAQGEIWLAIHHFEKAVTLDPNFLDAYINLGNVLKEARIFDRAVAAYLRALSLSPNHAVVHGNLACVYYEQGLIDLAIDTYRRAIELQPHFPDAYCNLANALKEKGSVAEAEDCYNTALRLCPTHADSLNNLANIKREQGNIEEAVRLYRKALEVFPEFAAAHSNLASVLQQQGKLQEALMHYKEAIRISPTFADAYSNMGNTLKEMQDVQGALQCYTRAIQINPAFADAHSNLASIHKDSGNIPEAIASYRTALKLKPDFPDAYCNLAHCLQIVCDWTDYDERMKKLVSIVAEQLEKNRLPSVHPHHSMLYPLSHGFRKAIAERHGNLCLDKINVLHKPPYEHPKDLKLSDGRLRVGYVSSDFGNHPTSHLMQSIPGMHNPDKFEVFCYALSPDDGTNFRVKVMAEANHFIDLSQIPCNGKAADRIHQDGIHILVNMNGYTKGARNELFALRPAPIQAMWLGYPGTSGALFMDYIITDQETSPAEVAEQYSEKLAYMPHTFFIGDHANMFPHLKKKAVIDFKSNGHIYDNRIVLNGIDLKAFLDSLPDVKIVKMKCPDGGDNPDSSNTALNMPVIPMNTIAEAVIEMINRGQIQITINGFSISNGLATTQINNKAATGEEVPRTIIVTTRSQYGLPEDAIVYCNFNQLYKIDPSTLQMWANILKRVPNSVLWLLRFPAVGEPNIQQYAQNMGLPQNRIIFSPVAPKEEHVRRGQLADVCLDTPLCNGHTTGMDVLWAGTPMVTMPGETLASRVAASQLTCLGCLELIAKSRQEYEDIAVKLGTDLEYLKKIRGKVWKQRISSPLFNTKQYTMELERLYLQMWEHYAAGNKPDHMIKPVEVTESA | 1.69 fold | – | – |
